The source of these data is patent publication US12358959B2, “Compositions and methods for oligodendrocyte development” (CHILDREN'S MEDICAL CENTER CORPORATION, priority 2016, dated 2025).

For assay [1], the target named is GPR56 NTF (GPR56^N) (Mus musculus, UniProt Q8K209). Particulars: between amino acids 27-160; cited from earlier work.
The target of assay [2] is GPR56 NTF (GPR56^N) (Mus musculus, UniProt Q8K209, DEL93-142). Particulars: aa 93-142 deleted; cited from earlier work.
Assay [3] addresses T1, GPR56^N (Mus musculus, UniProt Q8K209).
T1 construct: Using the soluble N-terminal fragment of GPR56 (GPR56^N); made in house
Put plainly: In vitro biotinylation/proteomics pull-down from mixed glial cell lysate with mass spectrometry. As to conditions: peptide sequences specific for binding to GPR56^N.
From the text: To identify the ligand of GPR56 in OPCs, an in vitro biotinylation/proteomics approach was employed using single-step capture on streptavidin beads to purify the binding partner(s) of GPR56 (FIGS. 2A-2B). Proteins with more than five identified tryptic peptides in the Mass Spectrometry (MS) output from three independent experiments are listed at Table 1.
(§1) GPR56^N and GPR56^Ndel fusions proteins with either mFc or hFc tag were generated as previously described (Luo et al. Proc Natl Acad Sci USA 108, 12925-12930, 2011). BirA enzyme was used to in vitro biotinylate GPR56^N-mFc-biotag protein as previously described (De Laurenzi and Melino Mol Cell Biol 21, 148-155, 2001). Mixed glial cell lysate was incubated with biotinylated GPR56^N protein in lysis buffer [20 mM Hepes (pH 7.3), 150 mM NaCl, and 5 mM MgCl2] with protein inhibitor mixture (Roche Molecular Biochemicals) and 1% Brij 96 (Fluka). Streptavidin beads (Sigma) were used to affinity purify immunocomplexes. GPR56-associated proteins were eluted in 2×SDS loading buffer, subjected to SDS/PAGE. The whole lane was used for MS at the Taplin Biological Mass Spectrometry at Havard Medical School. MS data were searched against the mouse International Protein Index (IPI mouse 339) database using the protein identification software Mascot (v2.2.04, Matrix Sciences) (Luo et al. Proc Natl Acad Sci USA 108, 12925-12930, 2011).
as §1, with “al.,” for “al.”, “(Stacey et al., J” for “(De Laurenzi and Melino Mol Cell”, “Chem 277, 29283-29293, 2002).” for “21, 148-155, 2001).”, “(20” for “[20”, “[pH 7.3],” for “(pH 7.3),”, “MgCl2)” for “MgCl2]”

Assay [4] concerns the target T2, Transglutaminase 2 (Tgm2), mouse, endogenous (mixed glial cell lysate / microglia-derived) (mouse, UniProt P21981 2-686).
T2 construct: Endogenous protein captured from lysate, or present in mouse tissue; also called TG2; microglial TG2
T2 sequence (looked up): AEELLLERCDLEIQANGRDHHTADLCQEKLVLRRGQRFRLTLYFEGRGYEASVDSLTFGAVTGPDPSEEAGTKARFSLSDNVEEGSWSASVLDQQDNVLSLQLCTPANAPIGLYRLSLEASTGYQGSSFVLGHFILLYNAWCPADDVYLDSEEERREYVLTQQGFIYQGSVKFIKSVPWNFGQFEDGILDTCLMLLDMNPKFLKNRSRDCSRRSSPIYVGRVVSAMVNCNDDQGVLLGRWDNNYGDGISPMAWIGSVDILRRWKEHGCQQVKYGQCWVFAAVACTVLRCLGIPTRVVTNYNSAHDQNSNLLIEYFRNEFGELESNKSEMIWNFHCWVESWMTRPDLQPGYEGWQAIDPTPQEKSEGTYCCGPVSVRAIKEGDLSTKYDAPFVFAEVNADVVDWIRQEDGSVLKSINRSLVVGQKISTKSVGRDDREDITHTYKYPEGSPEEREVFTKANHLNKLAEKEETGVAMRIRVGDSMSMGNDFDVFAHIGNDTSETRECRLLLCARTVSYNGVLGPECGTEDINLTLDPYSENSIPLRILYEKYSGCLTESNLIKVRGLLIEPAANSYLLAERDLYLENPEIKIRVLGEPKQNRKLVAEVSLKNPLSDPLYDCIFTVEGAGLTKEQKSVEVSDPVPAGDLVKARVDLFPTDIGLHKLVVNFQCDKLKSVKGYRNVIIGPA
Put plainly: figure legend of the summary model.

In assay [5] the target is T3, human recombinant Transglutaminase 2 (TG2) (human, UniProt P21980 1-687, limits assumed).
T3 construct: also called recombinant TG2; recombinant TGM2
T3 sequence: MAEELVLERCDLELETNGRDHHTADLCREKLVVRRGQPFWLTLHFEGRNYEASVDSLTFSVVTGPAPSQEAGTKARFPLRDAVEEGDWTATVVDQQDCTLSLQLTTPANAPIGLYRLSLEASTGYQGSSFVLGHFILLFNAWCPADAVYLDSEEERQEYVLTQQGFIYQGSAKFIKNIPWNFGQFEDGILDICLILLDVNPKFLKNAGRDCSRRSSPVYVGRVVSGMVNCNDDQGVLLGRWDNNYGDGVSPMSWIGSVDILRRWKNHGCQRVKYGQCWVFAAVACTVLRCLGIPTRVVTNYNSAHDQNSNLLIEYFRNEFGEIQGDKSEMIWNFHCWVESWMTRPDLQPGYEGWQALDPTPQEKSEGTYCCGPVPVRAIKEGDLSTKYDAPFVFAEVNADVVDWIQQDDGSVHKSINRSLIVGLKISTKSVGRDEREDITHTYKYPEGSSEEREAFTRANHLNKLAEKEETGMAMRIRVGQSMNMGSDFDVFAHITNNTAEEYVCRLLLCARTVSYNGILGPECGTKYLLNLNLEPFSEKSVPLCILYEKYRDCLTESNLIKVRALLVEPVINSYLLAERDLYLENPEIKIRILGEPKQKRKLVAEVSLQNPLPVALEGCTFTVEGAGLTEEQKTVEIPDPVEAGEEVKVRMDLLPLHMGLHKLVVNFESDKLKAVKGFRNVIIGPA
Put plainly: told in words; NTF release from HEK 293T cells expressing mouse GPR56. The source says:
HEK 293T cells were transiently transfected with mouse Gpr56 cDNA. […] The conditioned media were harvested, filtered, and concentrated as previously described. Equal volumes of the concentrated media were used for Western blot (Luo et al., PLOS One 9, e100043, 2014), while the cell pellets were used for GTP-Rho pull-down assay.

GPR56 NTF (GPR56^N) (Mus musculus, UniProt Q8K209, DEL93-142), sequence (Q8K209 with tags, fused parts or gaps DEL93-142): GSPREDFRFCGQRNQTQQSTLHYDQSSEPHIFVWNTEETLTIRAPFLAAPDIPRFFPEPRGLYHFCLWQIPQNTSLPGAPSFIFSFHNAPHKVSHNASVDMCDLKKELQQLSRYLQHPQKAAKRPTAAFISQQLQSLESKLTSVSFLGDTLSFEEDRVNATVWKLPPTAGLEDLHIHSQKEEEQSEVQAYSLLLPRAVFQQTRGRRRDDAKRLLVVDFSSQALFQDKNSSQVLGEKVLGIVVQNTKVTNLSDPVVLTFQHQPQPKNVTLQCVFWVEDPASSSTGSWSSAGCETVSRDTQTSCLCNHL

B1: Col III: collagen III (gene symbol Col3a1), ligand for GPR56 in the developing cerebral cortex (protein, UniProt P08121 155-1219, looked up)
Collagen alpha-1(III) chain: QFDSYDVKSGVGGMGGYPGPAGPPGPPGPPGSSGHPGSPGSPGYQGPPGEPGQAGPAGPPGPPGALGPAGPAGKDGESGRPGRPGERGLPGPPGIKGPAGMPGFPGMKGHRGFDGRNGEKGETGAPGLKGENGLPGDNGAPGPMGPRGAPGERGRPGLPGAAGARGNDGARGSDGQPGPPGPPGTAGFPGSPGAKGEVGPAGSPGSNGSPGQRGEPGPQGHAGAQGPPGPPGNNGSPGGKGEMGPAGIPGAPGLIGARGPPGPAGTNGIPGTRGPSGEPGKNGAKGEPGARGERGEAGSPGIPGPKGEDGKDGSPGEPGANGLPGAAGERGPSGFRGPAGPNGIPGEKGPPGERGGPGPAGPRGVAGEPGRDGTPGGPGIRGMPGSPGGPGNDGKPGPPGSQGESGRPGPPGPSGPRGQPGVMGFPGPKGNDGAPGKNGERGGPGGPGLPGPAGKNGETGPQGPPGPTGPAGDKGDSGPPGPQGLQGIPGTGGPPGENGKPGEPGPKGEVGAPGAPGGKGDSGAPGERGPPGTAGIPGARGGAGPPGPEGGKGPAGPPGPPGASGSPGLQGMPGERGGPGSPGPKGEKGEPGGAGADGVPGKDGPRGPAGPIGPPGPAGQPGDKGEGGSPGLPGIAGPRGGPGERGEHGPPGPAGFPGAPGQNGEPGAKGERGAPGEKGEGGPPGPAGPTGSSGPAGPPGPQGVKGERGSPGGPGTAGFPGGRGLPGPPGNNGNPGPPGPSGAPGKDGPPGPAGNSGSPGNPGIAGPKGDAGQPGEKGPPGAQGPPGSPGPLGIAGLTGARGLAGPPGMPGPRGSPGPQGIKGESGKPGASGHNGERGPPGPQGLPGQPGTAGEPGRDGNPGSDGQPGRDGSPGGKGDRGENGSPGAPGAPGHPGPPGPVGPSGKSGDRGETGPAGPSGAPGPAGARGAPGPQGPRGDKGETGERGSNGIKGHRGFPGNPGPPGSPGAAGHQGAIGSPGPAGPRGPVGPHGPPGKDGTSGHPGPIGPPGPRGNRGERGSEGSPGHPGQPGPPGPPGAPGPCCGGGAAAIAGVGGEKSGGFSPYYG
As for B1, the “Binding to GPR56 NTF (GPR56^N)” value in assay [1] is “binds”. Further, in assay [2], the “Binding to GPR56^Ndel” value is reported as “abrogated Col III binding”.

B2: GPR56 (ADGRG1), mouse, on cells (oligodendrocyte precursor cells; HEK 293T cells transfected with mouse Gpr56 cDNA) (receptor, UniProt Q8K209 26-687, looked up)
chain: GSPREDFRFCGQRNQTQQSTLHYDQSSEPHIFVWNTEETLTIRAPFLAAPDIPRFFPEPRGLYHFCLYWSRHTGRLHLRYGKHDYLLSSQASRLLCFQKQEQSLKQGAPLIATSVSSWQIPQNTSLPGAPSFIFSFHNAPHKVSHNASVDMCDLKKELQQLSRYLQHPQKAAKRPTAAFISQQLQSLESKLTSVSFLGDTLSFEEDRVNATVWKLPPTAGLEDLHIHSQKEEEQSEVQAYSLLLPRAVFQQTRGRRRDDAKRLLVVDFSSQALFQDKNSSQVLGEKVLGIVVQNTKVTNLSDPVVLTFQHQPQPKNVTLQCVFWVEDPASSSTGSWSSAGCETVSRDTQTSCLCNHLTYFAVLMVSSTEVEATHKHYLTLLSYVGCVISALACVFTIAAYLCSRRKSRDYTIKVHMNLLSAVFLLDVSFLLSEPVALTGSEAACRTSAMFLHFSLLACLSWMGLEGYNLYRLVVEVFGTYVPGYLLKLSIVGWGFPVFLVTLVALVDVNNYGPIILAVRRTPERVTYPSMCWIRDSLVSYVTNLGLFSLVFLFNLAMLATMVVQILRLRPHSQNWPHVLTLLGLSLVLGLPWALVFFSFASGTFQLVILYLFSIITSFQGFLIFLWYWSMRFQAQGGPSPLKNNSDSAKLPISSGSTSSSRI
notes: whole, on cells; not used here; also called OPC GPR56; OPC-GPR56
Consider B2, for which, in assay [3] (experiment 1), the “Peptide Number (Exp1)” value is on record as 12. Also, in assay [3] (experiment 2), the “Peptide Number (Exp2)” value is reported as 11. Moreover, the “Peptide Number (Exp3)” value in assay [3] (experiment 3) came out at 9. Besides, the binding result in assay [4] and in assay [5] was “binds” in each case.
